From patent US20110091971A1, “Differentiation of Pluripotent Stem Cells” (priority 2008, published 2011)

Assays:
[1] = system: Human Embryonic Stem Cells (H1 hESC line); assay: High content analysis of cell number, PDX1 and CDX2 protein expression at conclusion of third step of differentiation (Example 12); format: cell-based; settings: end of third step; peptide given during first step; compared with commercial activin A or ACTN1
Experimental: (§1) At the conclusion of the first step of the differentiation protocol, replicate sets of parallel wells for each treatment group were subjected to further step-wise differentiation. It is important to note that after the first three days, all wells undergoing continuing culture and differentiation received the same treatment. The protocol for this continuing differentiation is described below.
During the second step of differentiation, cultures were grown for two days in DMEM:F12 medium (Invitrogen; Cat #11330-032) supplemented with 2% Albumin Bovine Fraction V, Fatty Acid Free (FAF BSA) (MP Biomedicals, Inc; Cat #152401), 50 ng/ml FGF7 (PeproTech; Cat #100-19), and 250 nM cyclopamine (Calbiochem; Cat #239804). Medium in each well was aspirated and replaced with a fresh aliquot (0.5 ml) on both days.
Step 3 of the differentiation protocol was carried out over four days. Cells were fed daily by aspirating medium from each well and replacing with a fresh aliquot (0.5 ml) of DMEM-high glucose (Invitrogen; Cat #10569) supplemented with 1% B27 (Invitrogen; Cat #17504-044), 50 ng/ml FGF7, 100 ng/ml Noggin (R&D Systems; Cat #3344-NG), 250 nM KAAD-cyclopamine (Calbiochem; Cat #239804), and 2 μM all-trans retinoic acid (RA) (Sigma-Aldrich; Cat #R2625). At the conclusion of the third step of differentiation, cells from some wells were harvested for analysis by RT-PCR to measure markers of differentiation. Other culture wells were subjected to high content image analysis for protein expression levels of PDX1, a transcription factor correlated with pancreatic endoderm differentiation, and CDX2, a transcription factor associated with intestinal endoderm.
High Content Analysis: At the conclusion of three days of culture, assay plates were washed once with PBS (Invitrogen; Cat #14190), fixed with 4% paraformaldehyde (Alexis Biochemical; Cat #ALX-350-011) at room temperature for 20 minutes, then washed three times with PBS and permeabilized with 0.5% Triton X-100 (Sigma; Cat #T8760-2) for 20 minutes at room temperature. Cells were washed again three times with PBS and blocked with 4% chicken serum (Invitrogen; Cat #16110082) in PBS for 30 minutes at room temperature. Primary antibody (goat anti-human SOX17; R&D Systems; Cat #AF1924) was diluted 1:100 in 4% chicken serum and added to each well for two hours at room temperature. […]
Imaging was performed using an IN Cell Analyzer 1000 (GE Healthcare) utilizing the 51008bs dichroic for cells stained with Hoechst 33342 and Alexa Fluor 488. […] Segmentation for the nuclei was determined based on gray-scale levels (baseline range 100-300) and nuclear size. Averages and standard deviations were calculated for each replicate data set. […]

[2] = system: Human Embryonic Stem Cells (H1 hESC line); assay: RT-PCR of PDX1 and CDX2 at conclusion of third step of differentiation (Example 12); format: cell-based; settings: end of third step; peptide given during first step
From the text: as §1, with “below. […]” for “below.”
RT-PCR Analysis: RNA samples were purified by binding to a silica-gel membrane (Rneasy Mini Kit, Qiagen, CA) in the presence of an ethanol-containing, high-salt buffer followed by washing to remove contaminants. […] Yield and purity were assessed by A260 and A280 readings on a spectrophotometer. […]
Unless otherwise stated, all reagents were purchased from Applied Biosystems. […] For each primer/probe set, a Ct value was determined as the cycle number at which the fluorescence intensity reached a specific value in the middle of the exponential region of amplification. Relative gene expression levels were calculated using the comparative Ct method. […] The normalized amount of target was calculated as 2-ΔCt, assuming amplification to be 100% efficiency. […]

Molecule | cell numbers [1] | protein expression of PDX1 and CDX2 [1] | RT-PCR results for PDX1 and CDX2 [2]
ACTN4: activin A variant peptide, SEQ ID 5 (protein) GLECDGKVNLCCKKQLFVSFKDIGWNDWIIAPSGYHANHCSGLCPSHIAGTSGSSLSFHSTVINHYRMRGHSPFSDMGACCVPTKLRPMSMLYYDDGQNIIKKDIQNMIVEECGCS | equivalent cell numbers | equivalent protein expression | in agreement
ACTN48: activin A variant peptide, SEQ ID 49 (protein) GLECDGKVNLCCKKQNFVSFKDIGWNDWIIAPSGYHANECSGLCPSHIAGTSGSSLSFHSTVINHYRMRGHSPFANMGACCIPTKLRPMSMLYYDDGQNIIKKDIQNMIVEECGCS | equivalent cell numbers | equivalent protein expression | in agreement
